What was measured:
[1] = test system: G4C2×5 repeat RNA; experiment: Protein:RNA UV crosslinking assay, sense probe; format: binding; settings: purified recombinant hexa-histidine-tagged protein
Procedure: Recombinant proteins expressed in 1.51 of E. coli BL21 (DE3)-RP (Novagen) cell cultures were purified by IMAC chromatography on TALON/Cobalt beads (Clontech) in 1M NaCl containing buffers to prevent the potential co-purification of E. coli RNA (Lysis buffer: 50 mM TRIS-HCl pH8.0, 1M NaCl, 0.5% Triton X-100; Wash buffer: 50 mM TRIS-HCl pH8.0, 1M NaCl, 0.5% Triton X-100, 5 mM imidazole). […] Binding reactions were resolved on SDS-PAGE prior to analysis by Coomassie staining and Phosphoimaging.

[2] = test system: poly-Gly-Pro and poly-Gly-Ala DPRs; experiment: Western blot of RAN-translated DPRs in N2A cells; format: cell-based, mouse; settings: G4C2×38 or C4G2×39 constructs, 72 h
Procedure: Neuro-2a (ATCC) cells were cultured in Dulbecco's Modified Eagle Medium (Sigma) supplemented with 10% fetal bovine serum [FBS] (Gibco), 5 U/ml Penstrep (Lonza) and 5 mM sodium pyruvate. Cells were maintained in a […] incubator with 5% CO2. 75,000 Neuro-2a cells were split into each well of 24-well plates and transfected for 72 h with 500 ng pcDNA6.2-GW/EmGFP-Control miR RNAi (ThermoFisher) or pcDNA6.2-GW/EmGFP-mouse SRSF1 miR1+2 RNAi and 200 ng pcDNA 3.1/RAN-G4C2×38-sense or RAN-C4G2×39-antisense using 3 μg PEI/1 μg DNA and one tenth medium volume OptiMEM (ThermoFisher).
HEK cells were transfected for 72 h with 650 ng pcDNA6.2-GW/EmGFP-Control miRNA, pCDNA6.2-GW/EmGFP-human SRSF1 miR1+2 RNAi or LV-EmGFP-human SRSF1 miR1+2 RNAi constructs and 50 ng p3×FLAG/human-SRSF1 using 3.5 μg PEI/ml media and one tenth medium volume of OptiMEM. Neuro-2a cells were split into each well of 24-well plates (75,000 cells/well) and transfected for 72 h with 350 ng pcDNA6.2-GW/EmGFP-Control miR RNAi (ThermoFisher), pcDNA6.2-GW/EmGFP-mouse SRSF1 miR1+2 RNAi, p3×FLAG, p3×FLAG/SRSF1 (11-196), p3×FLAG/SRSF1 (11-196)-m2 or p3×FLAG/SRSF1 (11-196)-m4 and 350 ng pcDNA 3.1/RAN-G4C2×38-sense or RAN-C4G2×39-antisense using 3 μg PEI/1 μg DNA and one tenth medium volume OptiMEM.
Proteins were extracted from HEK or Neuro-2a cells 72 hours after transfection. […] Protein extracts were quantified using Bradford Reagent (BioRAD), resolved by SDS-PAGE, electroblotted onto nitrocellulose membrane and probed using the relevant primary antibody. […] (kindly received from Prof Stuart Pickering Brown) primary antibodies were detected with horseradish peroxidase (HRP)-conjugated rabbit secondary antibody [1:5000 dilution] […] (kindly provided from Prof Dieter Edbauer) primary antibodies were detected using HRP-conjugated mouse secondary antibody [1:5000 dilution] […] For dot blot analysis, 50 μg total protein extracts prepared in ice-cold lysis buffer were loaded onto a nitrocellulose membrane using a microfiltration apparatus (Biorad) and analysed by western immunoblotting as previously described.

B1: SRSF1-m4: quadruple SRSF1 point mutant aa11-196, dominant negative, does not interact with TAP/NXF1 (protein)
chain: AGNNDCRIYVGNLPPDIRTKDIEDVFYKYGAIRDIDLKNRRGGPPFAFVEFEDPRDAEDAVYGRDGYDYDGYRLRVEFPASGAGTGRGGGGGGGGGAPRGRYGPPSAASENRVVVSGLPPSGSWQDLKDHMREAGDVCYADVYRDGTGVVEFVRKEDMTYAVRKLDNTKFRSHEGETAYIRVKVDG
modifications: left off: small tags and cut ends
direct interaction with sense G4C2×5 repeat RNA [1]: retains the ability to directly interact | effect on RAN translation / production of sense and antisense DPRs [2]: marked reduction
